Reference: patent US20240279318A1 (NANJING LEGEND BIOTECH, published 2024)

Key:
[1] = target: T1, AFP158/HLA-A*02:01 complex (human); assay: SPR, crude scFv captured;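 also: Peptide–MHC complex flowed at several concentrations over sensorchip-captured scFv, Kd derived from on- and off-rates obtained from the association and dissociation curves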
T1 construct: biotinylated on the BSP by BirA for ELISA and panning; also called biotinylated AFP158/HLA-A*02:01 complex; Bio-AFP158
Protocol: (§1) The experiment was carried out as follows. The crude scFv protein were captured onto the sensorchip. Different concentrations (320, 160, 40 nM) of AFP158/HLA-A*02:01 complex flowed over the sensorchip surface, and were allowed to bind the antibody fragment for 100 s followed by injection of the running buffer to allow dissociation of the complex. On-rate (kd) and off-rate (kd) were calculated based on association and dissociation curve, and were used to estimate the equilibrium dissociation constant (KD).

[2] = target: T1, AFP158/HLA-A*02:01 complex; assay: SPR; vs AS170036 VL1VH1;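 also: crude scFv captured on sensor chip, peptide–HLA complex flowed over at several concentrations, KD estimated from association and dissociation kinetic rates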
Protocol: as §1

| Binder | Kd [1] | Affinity increase [2] |
| --- | --- | --- |
| AS170036 VL1VH1 HG56T (scFv) scFv: QSALTQPRSVSGSPGQSVTISCAGTSSDVGSENYVSWYQQHPGKAPKLMIYQVNKRASGVPDRFSGSKSGNTASLTISGLQAEDEADYYCASYRSSDHNIVFGGGTKLTVLGGGGSGGGGSGGGGSEVQLVESGGGLVQPGGSLRLSCAASGFTFSSYAMSWVRQAPGKGLEWVSTINSGTTSPYYADSVKGRFTISRDNSKNTLYLQMNSLRAEDTAVYYCAKNFFDGSWFLGPPAMDYWGQGTLVTVSSHHHHHH | 340 nM | 0.7 fold |
| AS170036 VL1VH1 HG108H (scFv) scFv: QSALTQPRSVSGSPGQSVTISCAGTSSDVGSENYVSWYQQHPGKAPKLMIYQVNKRASGVPDRFSGSKSGNTASLTISGLQAEDEADYYCASYRSSDHNIVFGGGTKLTVLGGGGSGGGGSGGGGSEVQLVESGGGLVQPGGSLRLSCAASGFTFSSYAMSWVRQAPGKGLEWVSTINSGTGSPYYADSVKGRFTISRDNSKNTLYLQMNSLRAEDTAVYYCAKNFFDGSWFLHPPAMDYWGQGTLVTVSSHHHHHH | 660 nM | 0.4 fold |
| AS170036 VL1VH1 HG108W (scFv) scFv: QSALTQPRSVSGSPGQSVTISCAGTSSDVGSENYVSWYQQHPGKAPKLMIYQVNKRASGVPDRFSGSKSGNTASLTISGLQAEDEADYYCASYRSSDHNIVFGGGTKLTVLGGGGSGGGGSGGGGSEVQLVESGGGLVQPGGSLRLSCAASGFTFSSYAMSWVRQAPGKGLEWVSTINSGTGSPYYADSVKGRFTISRDNSKNTLYLQMNSLRAEDTAVYYCAKNFFDGSWFLWPPAMDYWGQGTLVTVSSHHHHHH | 2300 nM | 0.1 fold |
| AS170036 VL1VH1 HL107I (scFv) scFv: QSALTQPRSVSGSPGQSVTISCAGTSSDVGSENYVSWYQQHPGKAPKLMIYQVNKRASGVPDRFSGSKSGNTASLTISGLQAEDEADYYCASYRSSDHNIVFGGGTKLTVLGGGGSGGGGSGGGGSEVQLVESGGGLVQPGGSLRLSCAASGFTFSSYAMSWVRQAPGKGLEWVSTINSGTGSPYYADSVKGRFTISRDNSKNTLYLQMNSLRAEDTAVYYCAKNFFDGSWFIGPPAMDYWGQGTLVTVSSHHHHHH | 240 nM | 1.1 fold |
| AS170036 VL1VH1 HL107Q (scFv) scFv: QSALTQPRSVSGSPGQSVTISCAGTSSDVGSENYVSWYQQHPGKAPKLMIYQVNKRASGVPDRFSGSKSGNTASLTISGLQAEDEADYYCASYRSSDHNIVFGGGTKLTVLGGGGSGGGGSGGGGSEVQLVESGGGLVQPGGSLRLSCAASGFTFSSYAMSWVRQAPGKGLEWVSTINSGTGSPYYADSVKGRFTISRDNSKNTLYLQMNSLRAEDTAVYYCAKNFFDGSWFQGPPAMDYWGQGTLVTVSSHHHHHH | 1600 nM | 0.2 fold |
| AS170036 VL1VH1 HL107M (scFv) scFv: QSALTQPRSVSGSPGQSVTISCAGTSSDVGSENYVSWYQQHPGKAPKLMIYQVNKRASGVPDRFSGSKSGNTASLTISGLQAEDEADYYCASYRSSDHNIVFGGGTKLTVLGGGGSGGGGSGGGGSEVQLVESGGGLVQPGGSLRLSCAASGFTFSSYAMSWVRQAPGKGLEWVSTINSGTGSPYYADSVKGRFTISRDNSKNTLYLQMNSLRAEDTAVYYCAKNFFDGSWFMGPPAMDYWGQGTLVTVSSHHHHHH | 370 nM | 0.7 fold |
| AS170036 VL1VH1 HG56V (scFv) scFv: QSALTQPRSVSGSPGQSVTISCAGTSSDVGSENYVSWYQQHPGKAPKLMIYQVNKRASGVPDRFSGSKSGNTASLTISGLQAEDEADYYCASYRSSDHNIVFGGGTKLTVLGGGGSGGGGSGGGGSEVQLVESGGGLVQPGGSLRLSCAASGFTFSSYAMSWVRQAPGKGLEWVSTINSGTVSPYYADSVKGRFTISRDNSKNTLYLQMNSLRAEDTAVYYCAKNFFDGSWFLGPPAMDYWGQGTLVTVSSHHHHHH | 630 nM | 0.4 fold |
| AS170036 VL1VH1 HL107N (scFv) scFv: QSALTQPRSVSGSPGQSVTISCAGTSSDVGSENYVSWYQQHPGKAPKLMIYQVNKRASGVPDRFSGSKSGNTASLTISGLQAEDEADYYCASYRSSDHNIVFGGGTKLTVLGGGGSGGGGSGGGGSEVQLVESGGGLVQPGGSLRLSCAASGFTFSSYAMSWVRQAPGKGLEWVSTINSGTGSPYYADSVKGRFTISRDNSKNTLYLQMNSLRAEDTAVYYCAKNFFDGSWFNGPPAMDYWGQGTLVTVSSHHHHHH | 530 nM | 0.5 fold |
| AS170036 VL1VH1 HG56W (scFv) scFv: QSALTQPRSVSGSPGQSVTISCAGTSSDVGSENYVSWYQQHPGKAPKLMIYQVNKRASGVPDRFSGSKSGNTASLTISGLQAEDEADYYCASYRSSDHNIVFGGGTKLTVLGGGGSGGGGSGGGGSEVQLVESGGGLVQPGGSLRLSCAASGFTFSSYAMSWVRQAPGKGLEWVSTINSGTWSPYYADSVKGRFTISRDNSKNTLYLQMNSLRAEDTAVYYCAKNFFDGSWFLGPPAMDYWGQGTLVTVSSHHHHHH | 130 nM | 1.7 fold |
| AS170036 VL1VH1 HG108Q (scFv) scFv: QSALTQPRSVSGSPGQSVTISCAGTSSDVGSENYVSWYQQHPGKAPKLMIYQVNKRASGVPDRFSGSKSGNTASLTISGLQAEDEADYYCASYRSSDHNIVFGGGTKLTVLGGGGSGGGGSGGGGSEVQLVESGGGLVQPGGSLRLSCAASGFTFSSYAMSWVRQAPGKGLEWVSTINSGTGSPYYADSVKGRFTISRDNSKNTLYLQMNSLRAEDTAVYYCAKNFFDGSWFLQPPAMDYWGQGTLVTVSSHHHHHH | 200 nM | 1.4 fold |

Further binders by falling Kd [1], results first:

| Kd [1] | Affinity increase [2] | Binder |
| --- | --- | --- |
| 4400 nM | 0.1 fold | AS170036 VL1VH1 HL107G (scFv) scFv: QSALTQPRSVSGSPGQSVTISCAGTSSDVGSENYVSWYQQHPGKAPKLMIYQVNKRASGVPDRFSGSKSGNTASLTISGLQAEDEADYYCASYRSSDHNIVFGGGTKLTVLGGGGSGGGGSGGGGSEVQLVESGGGLVQPGGSLRLSCAASGFTFSSYAMSWVRQAPGKGLEWVSTINSGTGSPYYADSVKGRFTISRDNSKNTLYLQMNSLRAEDTAVYYCAKNFFDGSWFGGPPAMDYWGQGTLVTVSSHHHHHH |
| 3300 nM | 0.1 fold | AS170036 VL1VH1 HL107A (scFv) scFv: QSALTQPRSVSGSPGQSVTISCAGTSSDVGSENYVSWYQQHPGKAPKLMIYQVNKRASGVPDRFSGSKSGNTASLTISGLQAEDEADYYCASYRSSDHNIVFGGGTKLTVLGGGGSGGGGSGGGGSEVQLVESGGGLVQPGGSLRLSCAASGFTFSSYAMSWVRQAPGKGLEWVSTINSGTGSPYYADSVKGRFTISRDNSKNTLYLQMNSLRAEDTAVYYCAKNFFDGSWFAGPPAMDYWGQGTLVTVSSHHHHHH |
| 1500 nM | 0.2 fold | AS170036 VL1VH1 HG108R (scFv) scFv: QSALTQPRSVSGSPGQSVTISCAGTSSDVGSENYVSWYQQHPGKAPKLMIYQVNKRASGVPDRFSGSKSGNTASLTISGLQAEDEADYYCASYRSSDHNIVFGGGTKLTVLGGGGSGGGGSGGGGSEVQLVESGGGLVQPGGSLRLSCAASGFTFSSYAMSWVRQAPGKGLEWVSTINSGTGSPYYADSVKGRFTISRDNSKNTLYLQMNSLRAEDTAVYYCAKNFFDGSWFLRPPAMDYWGQGTLVTVSSHHHHHH |
| 1100 nM | 0.2 fold | AS170036 VL1VH1 HG108Y (scFv) scFv: QSALTQPRSVSGSPGQSVTISCAGTSSDVGSENYVSWYQQHPGKAPKLMIYQVNKRASGVPDRFSGSKSGNTASLTISGLQAEDEADYYCASYRSSDHNIVFGGGTKLTVLGGGGSGGGGSGGGGSEVQLVESGGGLVQPGGSLRLSCAASGFTFSSYAMSWVRQAPGKGLEWVSTINSGTGSPYYADSVKGRFTISRDNSKNTLYLQMNSLRAEDTAVYYCAKNFFDGSWFLYPPAMDYWGQGTLVTVSSHHHHHH |
| 1000 nM | 0.2 fold | AS170036 VL1VH1 HG108I (scFv) scFv: QSALTQPRSVSGSPGQSVTISCAGTSSDVGSENYVSWYQQHPGKAPKLMIYQVNKRASGVPDRFSGSKSGNTASLTISGLQAEDEADYYCASYRSSDHNIVFGGGTKLTVLGGGGSGGGGSGGGGSEVQLVESGGGLVQPGGSLRLSCAASGFTFSSYAMSWVRQAPGKGLEWVSTINSGTGSPYYADSVKGRFTISRDNSKNTLYLQMNSLRAEDTAVYYCAKNFFDGSWFLIPPAMDYWGQGTLVTVSSHHHHHH |
| 810 nM | 0.3 fold | AS170036 VL1VH1 HG108F (scFv) scFv: QSALTQPRSVSGSPGQSVTISCAGTSSDVGSENYVSWYQQHPGKAPKLMIYQVNKRASGVPDRFSGSKSGNTASLTISGLQAEDEADYYCASYRSSDHNIVFGGGTKLTVLGGGGSGGGGSGGGGSEVQLVESGGGLVQPGGSLRLSCAASGFTFSSYAMSWVRQAPGKGLEWVSTINSGTGSPYYADSVKGRFTISRDNSKNTLYLQMNSLRAEDTAVYYCAKNFFDGSWFLFPPAMDYWGQGTLVTVSSHHHHHH |
| 530 nM | 0.5 fold | AS170036 VL1VH1 HG108T (scFv) scFv: QSALTQPRSVSGSPGQSVTISCAGTSSDVGSENYVSWYQQHPGKAPKLMIYQVNKRASGVPDRFSGSKSGNTASLTISGLQAEDEADYYCASYRSSDHNIVFGGGTKLTVLGGGGSGGGGSGGGGSEVQLVESGGGLVQPGGSLRLSCAASGFTFSSYAMSWVRQAPGKGLEWVSTINSGTGSPYYADSVKGRFTISRDNSKNTLYLQMNSLRAEDTAVYYCAKNFFDGSWFLTPPAMDYWGQGTLVTVSSHHHHHH |
| 370 nM | 0.7 fold | AS170036 VL1VH1 HG108V (scFv) scFv: QSALTQPRSVSGSPGQSVTISCAGTSSDVGSENYVSWYQQHPGKAPKLMIYQVNKRASGVPDRFSGSKSGNTASLTISGLQAEDEADYYCASYRSSDHNIVFGGGTKLTVLGGGGSGGGGSGGGGSEVQLVESGGGLVQPGGSLRLSCAASGFTFSSYAMSWVRQAPGKGLEWVSTINSGTGSPYYADSVKGRFTISRDNSKNTLYLQMNSLRAEDTAVYYCAKNFFDGSWFLVPPAMDYWGQGTLVTVSSHHHHHH |
| 200 nM | 1.4 fold | AS170036 VL1VH1 HG108L (scFv) scFv: QSALTQPRSVSGSPGQSVTISCAGTSSDVGSENYVSWYQQHPGKAPKLMIYQVNKRASGVPDRFSGSKSGNTASLTISGLQAEDEADYYCASYRSSDHNIVFGGGTKLTVLGGGGSGGGGSGGGGSEVQLVESGGGLVQPGGSLRLSCAASGFTFSSYAMSWVRQAPGKGLEWVSTINSGTGSPYYADSVKGRFTISRDNSKNTLYLQMNSLRAEDTAVYYCAKNFFDGSWFLLPPAMDYWGQGTLVTVSSHHHHHH |
